# Results taken from FireProtDB (doi:10.1093/protein/11.3.213).
# Values joined by “and” are separate entries in the source; they are usually repeats but may differ in a detail not shown here. Identical values can stand only once.
# B1: Endolysin, P03706 (parent)
# chain: MVEINNQRKAFLDMLAWSEGTDNGRQKTRNHGYDVIVGGELFTDYSDHPRKLVTLNPKLKSTGAGRYQLLSRWWDAYRKQLGLKDFSPKSQDAVALQQIKERGALPMIDRGDIRQAIDRCSNIWASLPGAGYGQFEHKADSLIAKFKEAGGTVREIDV
# Variants of: B1
# Details: Escherichia phage lambda; pH 4; Thermal; Fluorescence; phosphate 0.1 M; reversible: yes; structure 1AM7; whole UniProt chain shown
Variant,Tm,unfolding enthalpy (calorimetric),unfolding enthalpy (van 't Hoff)
MVEINNQRKAFLDMLAWSEGTDNGRQKTRNNGYDVIVGGELFTDYSDHPRKLVTLNPKLKSTGAGRYQLLSRWWDAYRKQLGLKDFSPKSQDAVALQQIKERGALPMIDRGDIRQAIDRCSNIWASLPGAGYGQFENKADSLIAKFKEAGGTVREIDV [H31N H137N],24.5 °C and 26 °C,169 kJ/mol and 181 kJ/mol,121 kJ/mol and 148 kJ/mol

# Same assay, conditions: Escherichia phage lambda; pH 4.5; Thermal; Fluorescence; phosphate 0.1 M; reversible: yes; structure 1AM7; whole UniProt chain shown
Variant,Tm,unfolding enthalpy (calorimetric),unfolding enthalpy (van 't Hoff)
MVEINNQRKAFLDMLAWSEGTDNGRQKTRNNGYDVIVGGELFTDYSDHPRKLVTLNPKLKSTGAGRYQLLSRWWDAYRKQLGLKDFSPKSQDAVALQQIKERGALPMIDRGDIRQAIDRCSNIWASLPGAGYGQFENKADSLIAKFKEAGGTVREIDV [H31N H137N],39.3 °C,292 kJ/mol,297 kJ/mol

# Same assay, conditions: Escherichia phage lambda; pH 5.5; Thermal; Fluorescence; phosphate 0.1 M; reversible: yes; structure 1AM7; whole UniProt chain shown
Variant,Tm,unfolding enthalpy (calorimetric),unfolding enthalpy (van 't Hoff)
MVEINNQRKAFLDMLAWSEGTDNGRQKTRNNGYDVIVGGELFTDYSDHPRKLVTLNPKLKSTGAGRYQLLSRWWDAYRKQLGLKDFSPKSQDAVALQQIKERGALPMIDRGDIRQAIDRCSNIWASLPGAGYGQFENKADSLIAKFKEAGGTVREIDV [H31N H137N],51.1 °C,391 kJ/mol,448 kJ/mol

# Same assay, conditions: Escherichia phage lambda; pH 6; Thermal; Fluorescence; phosphate 0.1 M; reversible: yes; structure 1AM7; whole UniProt chain shown
Variant,Tm,unfolding enthalpy (calorimetric),unfolding enthalpy (van 't Hoff)
MVEINNQRKAFLDMLAWSEGTDNGRQKTRNNGYDVIVGGELFTDYSDHPRKLVTLNPKLKSTGAGRYQLLSRWWDAYRKQLGLKDFSPKSQDAVALQQIKERGALPMIDRGDIRQAIDRCSNIWASLPGAGYGQFENKADSLIAKFKEAGGTVREIDV [H31N H137N],52.7 °C,405 kJ/mol,389 kJ/mol

# Same assay, conditions: Escherichia phage lambda; pH 6.5; Thermal; Fluorescence; phosphate 0.1 M; reversible: yes; structure 1AM7; whole UniProt chain shown
Variant,Tm,unfolding enthalpy (calorimetric),unfolding enthalpy (van 't Hoff)
MVEINNQRKAFLDMLAWSEGTDNGRQKTRNNGYDVIVGGELFTDYSDHPRKLVTLNPKLKSTGAGRYQLLSRWWDAYRKQLGLKDFSPKSQDAVALQQIKERGALPMIDRGDIRQAIDRCSNIWASLPGAGYGQFENKADSLIAKFKEAGGTVREIDV [H31N H137N],53.6 °C,412 kJ/mol,464 kJ/mol

# Same assay, conditions: Escherichia phage lambda; pH 6.57; Thermal; Fluorescence; phosphate 0.1 M; reversible: yes; structure 1AM7; whole UniProt chain shown
Variant,Tm,unfolding enthalpy (calorimetric),unfolding enthalpy (van 't Hoff)
MVEINNQRKAFLDMLAWSEGTDNGRQKTRNNGYDVIVGGELFTDYSDHPRKLVTLNPKLKSTGAGRYQLLSRWWDAYRKQLGLKDFSPKSQDAVALQQIKERGALPMIDRGDIRQAIDRCSNIWASLPGAGYGQFENKADSLIAKFKEAGGTVREIDV [H31N H137N],50.8 °C,389 kJ/mol,418 kJ/mol

# Same assay, conditions: Escherichia phage lambda; pH 7.07; Thermal; Fluorescence; phosphate 0.1 M; reversible: yes; structure 1AM7; whole UniProt chain shown
Variant,Tm,unfolding enthalpy (calorimetric),unfolding enthalpy (van 't Hoff)
MVEINNQRKAFLDMLAWSEGTDNGRQKTRNNGYDVIVGGELFTDYSDHPRKLVTLNPKLKSTGAGRYQLLSRWWDAYRKQLGLKDFSPKSQDAVALQQIKERGALPMIDRGDIRQAIDRCSNIWASLPGAGYGQFENKADSLIAKFKEAGGTVREIDV [H31N H137N],51.1 °C,391 kJ/mol,439 kJ/mol

# Same assay, conditions: Escherichia phage lambda; pH 7.57; Thermal; Fluorescence; phosphate 0.1 M; reversible: yes; structure 1AM7; whole UniProt chain shown
Variant,Tm,unfolding enthalpy (calorimetric),unfolding enthalpy (van 't Hoff)
MVEINNQRKAFLDMLAWSEGTDNGRQKTRNNGYDVIVGGELFTDYSDHPRKLVTLNPKLKSTGAGRYQLLSRWWDAYRKQLGLKDFSPKSQDAVALQQIKERGALPMIDRGDIRQAIDRCSNIWASLPGAGYGQFENKADSLIAKFKEAGGTVREIDV [H31N H137N],51 °C,390 kJ/mol,423 kJ/mol

# Same assay, conditions: Escherichia phage lambda; pH 8.07; Thermal; Fluorescence; phosphate 0.1 M; reversible: yes; structure 1AM7; whole UniProt chain shown
Variant,Tm,unfolding enthalpy (calorimetric),unfolding enthalpy (van 't Hoff)
MVEINNQRKAFLDMLAWSEGTDNGRQKTRNNGYDVIVGGELFTDYSDHPRKLVTLNPKLKSTGAGRYQLLSRWWDAYRKQLGLKDFSPKSQDAVALQQIKERGALPMIDRGDIRQAIDRCSNIWASLPGAGYGQFENKADSLIAKFKEAGGTVREIDV [H31N H137N],50.1 °C,383 kJ/mol,381 kJ/mol
